Measurements: patent US20260184748A1 (University of Pennsylvania, published 2026)
Where no end group is shown, it is not given here.

Legend:
Assay in all cases: cell-based or functional assay
NMBR = NMBR (UniProt P28336 1-390)
NPBWR2 = NPBWR2 (UniProt P48146 1-333)
OPRL1 = OPRL1 (UniProt P41146 1-370)
PROKR2 = PROKR2 (UniProt Q8NFJ6 1-384)
AVPR2 = AVPR2 (UniProt P30518 1-371)
C5L2 = C5L2 (UniProt Q9P296 1-337)
CALCR = biological target: T1, CALCR (UniProt P30988 25-474, limits assumed)
T1 sequence (looked up): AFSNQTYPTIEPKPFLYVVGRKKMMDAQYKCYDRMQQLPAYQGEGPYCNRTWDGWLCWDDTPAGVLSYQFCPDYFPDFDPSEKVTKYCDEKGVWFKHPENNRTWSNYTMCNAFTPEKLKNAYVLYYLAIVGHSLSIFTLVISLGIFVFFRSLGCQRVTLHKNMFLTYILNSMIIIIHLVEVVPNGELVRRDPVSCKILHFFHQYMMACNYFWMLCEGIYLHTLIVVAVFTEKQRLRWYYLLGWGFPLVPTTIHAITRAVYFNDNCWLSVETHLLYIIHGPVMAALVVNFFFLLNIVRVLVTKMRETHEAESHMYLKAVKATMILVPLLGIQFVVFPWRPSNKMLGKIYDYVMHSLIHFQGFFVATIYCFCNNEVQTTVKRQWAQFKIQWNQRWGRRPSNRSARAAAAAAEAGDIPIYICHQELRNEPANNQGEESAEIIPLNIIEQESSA

CCR10 = biological target: T2, CCR10 (UniProt P46092 1-362)
T2 sequence (looked up): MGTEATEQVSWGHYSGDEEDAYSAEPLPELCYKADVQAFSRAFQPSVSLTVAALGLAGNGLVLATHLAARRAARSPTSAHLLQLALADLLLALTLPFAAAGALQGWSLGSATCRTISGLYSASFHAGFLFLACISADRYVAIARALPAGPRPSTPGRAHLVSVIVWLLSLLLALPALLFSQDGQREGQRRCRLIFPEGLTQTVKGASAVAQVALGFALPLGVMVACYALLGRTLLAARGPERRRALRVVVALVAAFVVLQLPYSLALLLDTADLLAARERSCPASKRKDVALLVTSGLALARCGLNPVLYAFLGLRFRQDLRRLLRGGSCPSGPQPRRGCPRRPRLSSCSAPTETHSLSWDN

CHRM4 = biological target: T3, CHRM4 (UniProt P08173 1-479)
T3 sequence (looked up): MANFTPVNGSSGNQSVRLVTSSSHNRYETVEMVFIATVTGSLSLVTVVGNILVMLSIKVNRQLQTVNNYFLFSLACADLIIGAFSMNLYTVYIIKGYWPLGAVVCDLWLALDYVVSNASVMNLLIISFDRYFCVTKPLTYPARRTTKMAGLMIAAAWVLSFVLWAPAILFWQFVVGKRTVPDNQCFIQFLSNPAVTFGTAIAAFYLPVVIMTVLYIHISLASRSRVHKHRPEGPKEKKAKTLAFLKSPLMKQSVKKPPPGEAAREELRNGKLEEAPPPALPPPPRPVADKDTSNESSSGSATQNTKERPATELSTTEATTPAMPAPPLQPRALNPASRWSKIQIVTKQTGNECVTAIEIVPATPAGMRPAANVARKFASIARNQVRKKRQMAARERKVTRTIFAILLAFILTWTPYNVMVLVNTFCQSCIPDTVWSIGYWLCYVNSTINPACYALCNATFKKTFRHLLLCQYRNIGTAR

CRHR2 = biological target: T4, CRHR2 (UniProt Q13324 1-411, limits assumed)
T4 sequence (looked up): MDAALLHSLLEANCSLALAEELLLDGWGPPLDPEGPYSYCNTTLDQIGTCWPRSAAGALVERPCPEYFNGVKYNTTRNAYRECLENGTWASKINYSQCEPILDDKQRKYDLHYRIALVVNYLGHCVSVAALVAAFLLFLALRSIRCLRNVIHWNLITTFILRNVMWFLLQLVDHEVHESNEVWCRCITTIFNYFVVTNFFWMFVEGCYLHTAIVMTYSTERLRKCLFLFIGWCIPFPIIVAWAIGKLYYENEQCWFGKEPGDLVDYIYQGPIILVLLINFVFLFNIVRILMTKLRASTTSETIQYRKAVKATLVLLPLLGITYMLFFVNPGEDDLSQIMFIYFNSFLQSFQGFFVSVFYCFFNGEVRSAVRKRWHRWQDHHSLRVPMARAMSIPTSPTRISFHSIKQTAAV

FFAR1 = FFAR1 (UniProt O14842 1-300)
ADRA2C = biological target: T5, ADRA2C (UniProt P18825 1-462)
T5 sequence (looked up): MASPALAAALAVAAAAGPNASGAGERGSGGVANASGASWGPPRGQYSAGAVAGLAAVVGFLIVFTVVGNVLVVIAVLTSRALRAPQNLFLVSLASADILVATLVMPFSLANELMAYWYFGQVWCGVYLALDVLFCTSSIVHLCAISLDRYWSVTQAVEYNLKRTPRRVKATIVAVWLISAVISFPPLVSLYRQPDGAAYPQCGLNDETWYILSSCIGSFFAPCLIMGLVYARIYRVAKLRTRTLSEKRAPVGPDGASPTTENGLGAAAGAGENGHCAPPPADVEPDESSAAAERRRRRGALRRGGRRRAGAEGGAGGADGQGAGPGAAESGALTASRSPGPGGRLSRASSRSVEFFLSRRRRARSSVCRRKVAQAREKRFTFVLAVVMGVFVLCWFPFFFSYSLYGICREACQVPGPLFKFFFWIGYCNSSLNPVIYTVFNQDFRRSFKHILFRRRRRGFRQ

GRPR = GRPR (UniProt P30550 1-384)
Sequence of GRPR (P30550 whole entry): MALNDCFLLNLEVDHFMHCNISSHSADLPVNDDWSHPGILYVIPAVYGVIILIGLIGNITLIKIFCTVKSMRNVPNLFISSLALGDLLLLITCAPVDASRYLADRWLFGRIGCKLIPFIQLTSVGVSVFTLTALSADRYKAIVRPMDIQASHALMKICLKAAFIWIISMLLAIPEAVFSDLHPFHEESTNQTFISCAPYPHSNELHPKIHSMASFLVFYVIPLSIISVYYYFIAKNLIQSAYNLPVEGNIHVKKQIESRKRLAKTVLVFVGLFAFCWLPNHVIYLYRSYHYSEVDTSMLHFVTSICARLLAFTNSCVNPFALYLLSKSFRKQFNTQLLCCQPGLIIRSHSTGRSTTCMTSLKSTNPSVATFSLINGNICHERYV

Sequence of NMBR (P28336 whole entry): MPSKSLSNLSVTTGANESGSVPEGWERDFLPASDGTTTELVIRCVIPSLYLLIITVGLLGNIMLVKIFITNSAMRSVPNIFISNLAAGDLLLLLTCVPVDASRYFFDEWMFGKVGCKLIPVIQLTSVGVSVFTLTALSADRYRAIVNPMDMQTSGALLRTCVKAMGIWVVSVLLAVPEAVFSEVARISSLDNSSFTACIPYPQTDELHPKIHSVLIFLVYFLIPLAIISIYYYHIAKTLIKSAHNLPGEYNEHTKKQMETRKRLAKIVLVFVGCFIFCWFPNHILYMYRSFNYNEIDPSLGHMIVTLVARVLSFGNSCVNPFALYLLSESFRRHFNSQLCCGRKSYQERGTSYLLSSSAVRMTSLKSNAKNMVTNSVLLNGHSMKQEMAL
Sequence of OPRL1 (P41146 whole entry): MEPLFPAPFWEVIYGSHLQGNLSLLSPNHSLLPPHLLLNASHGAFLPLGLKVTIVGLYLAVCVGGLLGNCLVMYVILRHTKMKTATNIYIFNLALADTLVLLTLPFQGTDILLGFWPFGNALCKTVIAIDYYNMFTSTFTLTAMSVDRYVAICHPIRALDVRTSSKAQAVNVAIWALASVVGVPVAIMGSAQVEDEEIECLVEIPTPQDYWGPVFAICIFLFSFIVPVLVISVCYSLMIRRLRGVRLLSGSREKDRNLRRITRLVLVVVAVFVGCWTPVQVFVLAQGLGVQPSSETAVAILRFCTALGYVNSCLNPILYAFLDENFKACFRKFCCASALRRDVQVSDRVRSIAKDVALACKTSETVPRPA
Sequence of NPBWR2 (P48146 whole entry): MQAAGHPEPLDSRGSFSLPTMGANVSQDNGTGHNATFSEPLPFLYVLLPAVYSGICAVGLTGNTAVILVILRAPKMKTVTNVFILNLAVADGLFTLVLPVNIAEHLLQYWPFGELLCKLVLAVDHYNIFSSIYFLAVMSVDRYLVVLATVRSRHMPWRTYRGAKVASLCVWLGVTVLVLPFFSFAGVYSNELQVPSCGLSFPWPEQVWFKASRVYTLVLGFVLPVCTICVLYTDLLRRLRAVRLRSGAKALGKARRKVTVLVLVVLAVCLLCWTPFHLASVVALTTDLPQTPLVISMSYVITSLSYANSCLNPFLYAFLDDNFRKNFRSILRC
Sequence of FFAR1 (O14842 whole entry): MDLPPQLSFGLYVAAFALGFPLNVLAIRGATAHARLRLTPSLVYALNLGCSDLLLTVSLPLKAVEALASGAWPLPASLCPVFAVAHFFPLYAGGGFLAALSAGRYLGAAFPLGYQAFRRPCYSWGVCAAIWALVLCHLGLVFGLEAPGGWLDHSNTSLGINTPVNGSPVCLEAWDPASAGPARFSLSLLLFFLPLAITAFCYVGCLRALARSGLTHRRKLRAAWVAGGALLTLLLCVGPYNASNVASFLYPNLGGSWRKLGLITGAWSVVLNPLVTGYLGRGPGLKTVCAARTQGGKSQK
Sequence of PROKR2 (Q8NFJ6 whole entry): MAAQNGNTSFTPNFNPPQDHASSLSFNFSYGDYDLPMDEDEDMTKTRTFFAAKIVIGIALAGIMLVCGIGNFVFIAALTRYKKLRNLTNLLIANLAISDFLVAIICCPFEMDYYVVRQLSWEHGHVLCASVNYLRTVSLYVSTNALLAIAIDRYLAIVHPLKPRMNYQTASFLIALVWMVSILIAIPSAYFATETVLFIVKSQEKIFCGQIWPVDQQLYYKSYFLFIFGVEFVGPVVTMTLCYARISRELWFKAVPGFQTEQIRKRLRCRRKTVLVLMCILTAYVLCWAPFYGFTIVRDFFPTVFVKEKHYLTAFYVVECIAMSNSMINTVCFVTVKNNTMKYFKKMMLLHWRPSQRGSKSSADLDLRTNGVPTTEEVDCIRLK
Sequence of C5L2 (Q9P296 whole entry): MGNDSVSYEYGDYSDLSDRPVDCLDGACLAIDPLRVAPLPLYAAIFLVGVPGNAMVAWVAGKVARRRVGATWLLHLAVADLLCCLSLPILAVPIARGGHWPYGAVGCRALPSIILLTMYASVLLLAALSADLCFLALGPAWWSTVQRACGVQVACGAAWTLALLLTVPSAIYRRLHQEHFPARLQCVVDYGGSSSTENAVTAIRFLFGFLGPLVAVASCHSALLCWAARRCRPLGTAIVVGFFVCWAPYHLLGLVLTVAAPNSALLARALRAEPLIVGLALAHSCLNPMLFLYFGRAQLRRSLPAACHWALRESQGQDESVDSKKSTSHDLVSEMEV

B1: octadecaneuropeptide (ODN) (peptide)
peptide: QATVGDVNTDRPGLLDLK
modifications: also: synthesised on Rink amide resin, C-terminal amide not given here outright
B1 was tested, and the “% Activity, arrestin, antagonist mode, 2.5 uM” value (“% Activity, arrestin” below) (NMBR) was -7.7%, the “% Activity, arrestin” value (NPBWR2) was -1.1% and the “% Activity, arrestin” value (OPRL1) was -5.6%. The “% Activity, arrestin” value (PROKR2) was -17.5%, the “% Activity, arrestin” value (AVPR2) was -11.2% and the “% Activity, arrestin” value (C5L2) was 3.5%. The “% Activity, arrestin” value (CALCR) was -22.3%, the “% Activity, arrestin” value (CCR10) was -16.6% and the “% Activity, arrestin” value (CHRM4) was 5.8%. The “% Activity, arrestin” value (CRHR2) was -8.6%, the “% Activity, arrestin” value (FFAR1) was -3.9% and the “% Activity, arrestin” value (ADRA2C) was -26.4%. For the same binder, the “% Activity, arrestin” value (GRPR) was -12.2%.
